This is an account of results in PMC7369618 (Redox Biology, 2020).

Broadly, the Kd is a measure of binding affinity in units of concentration. Low values mean a tighter complex, high ones a looser complex.

For the test, the target named is EGFP-PKM2 (UniProt P14618 1-531). The experiment in a line: MST.
Chain of EGFP-PKM2 (P14618 whole entry): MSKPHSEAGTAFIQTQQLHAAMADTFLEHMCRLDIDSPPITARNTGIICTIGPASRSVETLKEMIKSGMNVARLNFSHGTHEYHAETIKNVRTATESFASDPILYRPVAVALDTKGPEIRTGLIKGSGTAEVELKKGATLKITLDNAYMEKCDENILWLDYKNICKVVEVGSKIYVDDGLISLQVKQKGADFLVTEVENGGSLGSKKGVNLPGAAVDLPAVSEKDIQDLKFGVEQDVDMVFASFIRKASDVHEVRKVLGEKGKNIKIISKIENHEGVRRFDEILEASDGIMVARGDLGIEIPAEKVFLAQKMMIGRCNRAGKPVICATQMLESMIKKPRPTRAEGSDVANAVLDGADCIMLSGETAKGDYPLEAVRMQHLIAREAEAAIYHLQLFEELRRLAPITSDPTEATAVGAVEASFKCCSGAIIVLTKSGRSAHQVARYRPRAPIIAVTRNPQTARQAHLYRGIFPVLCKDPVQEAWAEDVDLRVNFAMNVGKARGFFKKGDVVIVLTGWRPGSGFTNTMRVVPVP

B1: Annexin A5 (sc-4252, Santa Cruz Biotechnology) (natural protein)
chain: MAQVLRGTVTDFPGFDERADAETLRKAMKGLGTDEESILTLLTSRSNAQRQEISAAFKTLFGRDLLDDLKSELTGKFEKLIVALMKPSRLYDAYELKHALKGAGTNEKVLTEIIASRTPEELRAIKQVYEEEYGSSLEDDVVGDTSGYYQRMLVVLLQANRDPDAGIDEAQVEQDAQALFQAGELKWGTDEEKFITIFGTRSVSHLRKVFDKYMTISGFQIEETIDRETSGNLEQLLLAVVKSIRSIPAYLAETLYYAMKGAGTDDHTLIRVMVSRSEIDLFNIRKEFRKNFATSLYSMIKGDTSGDYKKALLLLCGEDD
For the molecule B1, the Kd is 0.001 pM.
